The values below come from US20240156870A1 (NATIONAL RESEARCH COUNCIL OF CANADA, published 2024).

Assay [1] addresses T1, human EGFR-Fc fusion protein (human, UniProt P00533 25-645).
T1 construct: Bought; not shown: Fc part of the bought fusion
Briefly: SPR, VHH over human EGFR-Fc. (In general: In SPR one partner is held on a chip, and binding of the other changes the refractive index at the surface.)

For assay [2], the target named is T1, human EGFR-Fc fusion protein. In words: SPR single-cycle, VHH over amine-coupled human EGFR-Fc.
Experimental: (§1) In the second SPR experiment, single-cycle kinetic analyses were performed on a Biacore™ T200 instrument (GE Healthcare) at 25° C. in HBS-EP buffer. […] An ethanolamine-blocked flow cell served as the reference. Monomeric VHHs at concentrations ranging from 0.6 to 50 nM were injected over the EGFR surfaces in HBS-EP buffer at a flow rate of 40 μL/min. The contact time was 180 s and the dissociation time was 600 s. The EGFR surfaces were regenerated using a 10 s pulse of 10 mM glycine, pH 1.5.
Assay [3] concerns the target T2, mouse EGFR-Fc fusion protein (mouse, UniProt Q01279 25-647).
T2 construct: Bought; not shown: Fc part of the bought fusion
In words: SPR single-cycle, VHH over amine-coupled mouse EGFR-Fc.

The target of assay [4] is T3, recombinant 6xHis-tagged human EGFR ectodomain (human, UniProt P00533 25-645).
T3 construct: extracellular domain; Bought; also called recombinant human EGFR; EGFR extracellular domain; not shown: 6xHis tag
In words: SPR multi-cycle, VHH over amine-coupled EGFR ectodomain.

Assay [5] concerns the target T4, rhesus EGFR-Fc fusion protein (rhesus, UniProt P55245 25-645).
T4 construct: Bought; not shown: Fc part of the bought fusion
In words: SPR single-cycle, VHH over amine-coupled rhesus EGFR-Fc.

Assay [6] deals with T4, rhesus EGFR-Fc fusion protein. Described as above. The source holds these as a separate data set.
Experimental: as §1
In assay [7] the target is T1, human EGFR-Fc fusion protein. Briefly: ELISA, VHH titrated from about 0.5 to 1000 ng/mL, OD 450 nm. (In general: ELISA stands for enzyme-linked immunosorbent assay.)
Assay [8] concerns the target T4, rhesus EGFR-Fc fusion protein. Described as above.
Assay [9] has as its target T2, mouse EGFR-Fc fusion protein. The description is as above.
Assay [10] addresses T3, recombinant 6xHis-tagged human EGFR …. In words: SPR multi-cycle, EGFR ectodomain over amine-coupled NRC-sdAb032.
Experimental: (§2) In the first SPR experiment, multi-cycle kinetic analyses were performed on a Biacore™ 3000 instrument (GE Healthcare) at 25° C. in HBS-EP buffer [10 mM HEPES, pH 7.4, containing 150 mM NaCl, 3 mM EDTA and 0.005% (w/v) surfactant P20]. […] An ethanolamine-blocked flow cell served as the reference. Monomeric VHHs at concentrations ranging from 0.1 to 100 nM were injected over the EGFR and EGFRvIII surfaces in HBS-EP buffer at a flow rate of 20 μL/min. […] Contact times were 180-300 s and dissociation times were 300-600 s.
For assay [11], the target named is T2, mouse EGFR-Fc fusion protein. In words: ELISA, VHH titrated from about 0.5 to 1000 ng/mL, OD 450 nm. This is another data set of the same source.
Assay [12] has as its target recombinant human EGFRvIII ectodomain (human) (UniProt P00533). In words: SPR multi-cycle, VHH over amine-coupled EGFRvIII ectodomain.
Assay [13] concerns the target T1, human EGFR-Fc fusion protein. Briefly: ELISA, VHH titrated from about 0.5 to 1000 ng/mL, OD 450 nm. This is another data set of the same source.
The target of assay [14] is T4, rhesus EGFR-Fc fusion protein. Described as above. The source holds these as a separate data set.
The target of assay [15] is T2, mouse EGFR-Fc fusion protein. The description is as above. This is another data set of the same source.
Assay [16] deals with T3, recombinant 6xHis-tagged human EGFR …. In words: SPR (value of Table 2 repeated in Table 6).
Experimental: as §2
Assay [17] addresses T1, human EGFR-Fc fusion protein. In words: ELISA, VHH titrated from about 0.5 to 1000 ng/mL, OD 450 nm. The source holds these as a separate data set.
For assay [18], the target named is T4, rhesus EGFR-Fc fusion protein. The description is as above. This is another data set of the same source.

Like-named read-outs stand apart in the source and are kept apart here.

B1: NRC-sdAb033 (VHH)
VHH: QVQLVESGGGLVQPGGSLRLSCAASESIDSIYVMQWYRQAPEKPRDVVATLTPGGGSYYPEAVLGRFTISRDDAKNTVYLQMNSLKPEDTAVYYCNAFHRLRGTHYWGQGTQVTVSS
notes: Monomeric llama VHH; in ELISA a version with biotin acceptor peptide and 6xHis was used; also called EVE48; not shown: C-terminal c-Myc and 6xHis tags
For the molecule B1, the Kd amounted to 1.8 nM in [1]; 1.8 nM in assay [2]; 3.1 nM in assay [3]; 1.1 nM in assay [4]; 1 nM in assay [6]. Further, the koff in assay [1] is 0.00016 s⁻¹; in assay [2], 0.00016 s⁻¹; in [3], 0.00028 s⁻¹; in assay [4], 0.00017 s⁻¹; in assay [5] it was 0.00011 s⁻¹. The on-rate constant (kon) in assay [1] was 90000 M⁻¹ s⁻¹; in assay [2] it was 90000 M⁻¹ s⁻¹; in assay [3], 92000 M⁻¹ s⁻¹; in [4], 150000 M⁻¹ s⁻¹; in assay [5], 110000 M⁻¹ s⁻¹. Moreover, the “EC50 (read off the curve)” value in assay [7], in assay [8] and in assay [9] was about 0.02 µg/mL each time.

B2: NRC-sdAb032 (VHH)
VHH: QVKLEESGGGLVQPGGSLRLSCSASGSISSISVMGWYRQAPGKQRELVARITSGGISNYVDSVKGRFTISGDSAKNIVYLQMNSLKPEDTAVYYCYMYVHVGYWVDYWGQGTQVTVSS
notes: Monomeric llama VHH; in ELISA a version with biotin acceptor peptide and 6xHis was used; also called EVE46; not shown: C-terminal c-Myc and 6xHis tags
In the case of B2, the Kd in assay [1] amounted to 6.9 nM; in assay [2], 6.9 nM; in [6], 8.1 nM; in assay [10], 12.9 nM. Further, the dissociation rate constant (koff) in assay [1] came to 0.0025 s⁻¹; in assay [2], 0.0025 s⁻¹; in assay [5], 0.0039 s⁻¹; in assay [10], 0.0013 s⁻¹. In addition, the kon is 360000 M⁻¹ s⁻¹ in [1], 360000 M⁻¹ s⁻¹ in assay [2], 480000 M⁻¹ s⁻¹ in assay [5] and 100000 M⁻¹ s⁻¹ in assay [10]. Besides, in assay [11], the binding result was “no binding (tested: 1000 ng/mL)”.

B3: NRC-sdAb022 (VHH)
VHH: QVQLVESGGGLVQPGGSLKLSCAVSGFAFERNGVSWYRQAPGKQREFVAVISSGTTTYKDSVKGRFTISRDNTRNTAYLQMNNLKPEDTAVYYCNLVPPTPYWGQGTQVTVSS
notes: Monomeric llama VHH; in ELISA a version with biotin acceptor peptide and 6xHis was used; Stands for the 'NRC-sdAb022-family' in the cross-species and binning sentences; also called EGFR2; NRC-sdAb022-family VHHs; not shown: C-terminal c-Myc and 6xHis tags
For B3, the Kd in assay [1] came out at 8.9 nM; in [12], 2.6 nM; in [2] it was 8.9 nM; in [4] it was 1.7 nM; in assay [6], 19.6 nM. Further, the koff in [1] amounted to 0.0022 s⁻¹; in assay [12], 0.00077 s⁻¹; in assay [2], 0.0022 s⁻¹; in [4], 0.00067 s⁻¹; in [5] it was 0.0017 s⁻¹. Besides, the kon worked out at 250000 M⁻¹ s⁻¹ in [1]; 290000 M⁻¹ s⁻¹ in assay [12]; 250000 M⁻¹ s⁻¹ in assay [2]; 400000 M⁻¹ s⁻¹ in assay [4]; 85000 M⁻¹ s⁻¹ in [5]. In addition, the “EC50 (read off the curve)” value in assay [13] was about 0.003 µg/mL; in [14], about 0.004 µg/mL. The binding result in assay [15] was “no binding (tested: 1000 ng/mL)”.

B4: NRC-sdAb028 (VHH)
VHH: EVQLVESGGGLVQPGGSLRLSCTVSGSFFSRDAMGWHRQAPGKQREMVAGISSGGLSNHAESVKGRFTISRDNSKNTVYLQMNNLKPEDTAVYYCSIYEDGVWTSWGQGTQVTVSS
notes: Monomeric llama VHH; in ELISA a version with biotin acceptor peptide and 6xHis was used; also called EGFR10; not shown: C-terminal c-Myc and 6xHis tags
For the molecule B4, the Kd stood at 6 nM in [1]; 9 nM in [16]; 8.6 nM in assay [12]; 6 nM in [2]; 11.6 nM in assay [3]; 9 nM in assay [4]. Also, the koff in assay [1] worked out at 0.00055 s⁻¹; in [12], 0.00084 s⁻¹; in assay [2] it was 0.00055 s⁻¹; in assay [3], 0.0075 s⁻¹; in [4], 0.00075 s⁻¹. Moreover, the association rate constant (kon) in assay [1] came to 92000 M⁻¹ s⁻¹; in assay [12], 98000 M⁻¹ s⁻¹; in assay [2], 92000 M⁻¹ s⁻¹; in [3] it was 650000 M⁻¹ s⁻¹; in assay [4], 84000 M⁻¹ s⁻¹. The half-maximal effective concentration (EC50 (read off the curve)) in assay [17] was about 0.007 µg/mL. Also, in assay [18], the binding result is “no binding (tested: 1000 ng/mL)”.

As usually defined, the Kd is the constant that tells how readily two partners part at equilibrium. The term koff denotes the rate constant with which the complex falls apart. By kon is commonly meant the second-order rate constant of association. The term EC50 (read off the curve) denotes the concentration that produces a half-maximal response.
